Patent US20250171532A1 (NB HEALTH LABORATORY, published 2025)

T1: human LPA3 with FLAG tag (human LPA3 gene transfected cell) (human, UniProt Q9UBY5 1-353)
T1 construct: also called EDG7; not shown: FLAG tag added at the 5' terminal of the gene
T1 sequence: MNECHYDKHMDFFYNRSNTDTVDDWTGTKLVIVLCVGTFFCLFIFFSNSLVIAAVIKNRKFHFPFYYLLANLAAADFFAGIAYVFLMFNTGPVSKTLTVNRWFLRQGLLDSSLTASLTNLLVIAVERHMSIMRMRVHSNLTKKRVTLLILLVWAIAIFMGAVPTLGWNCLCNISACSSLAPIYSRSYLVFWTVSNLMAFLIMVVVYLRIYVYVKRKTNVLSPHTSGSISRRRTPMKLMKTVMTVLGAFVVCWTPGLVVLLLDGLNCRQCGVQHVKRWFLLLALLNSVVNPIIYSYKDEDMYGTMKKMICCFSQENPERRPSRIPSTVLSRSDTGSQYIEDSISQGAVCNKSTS

T2: mouse LPA3 with FLAG tag (mouse LPA3 gene transfected cell) (mouse, UniProt Q9EQ31 1-354)
T2 construct: not shown: FLAG tag added at the 5' terminal of the gene
T2 sequence: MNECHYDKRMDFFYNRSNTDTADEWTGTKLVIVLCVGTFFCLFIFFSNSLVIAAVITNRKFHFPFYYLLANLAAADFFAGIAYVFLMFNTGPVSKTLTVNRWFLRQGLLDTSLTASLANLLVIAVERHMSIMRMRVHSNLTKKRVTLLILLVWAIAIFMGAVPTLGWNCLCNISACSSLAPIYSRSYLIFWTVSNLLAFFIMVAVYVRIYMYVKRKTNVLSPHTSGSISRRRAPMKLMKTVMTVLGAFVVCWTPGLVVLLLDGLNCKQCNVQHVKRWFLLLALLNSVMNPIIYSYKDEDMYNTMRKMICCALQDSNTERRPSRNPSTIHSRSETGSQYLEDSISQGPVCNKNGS


Key:
human LPA1 [1] = target: T3, human LPA1 (human, UniProt Q92633 1-364); experiment: cell-based or functional assay
mouse LPA1 [2] = target: T4, mouse LPA1 (mouse, UniProt P61793 1-364); experiment: cell-based or functional assay
human LPA1 [3] = target: T3, human LPA1; experiment: cell-based or functional assay; remark: listed apart in the source
mouse LPA1 [4] = target: T4, mouse LPA1; experiment: cell-based or functional assay; remark: listed apart in the source
[5] = target: T5, human LPA2 with FLAG tag (human LPA2 gene transfected cell) (human, UniProt Q9HBW0 1-348); experiment: flow cytometry, transfected HEK293FT cells, histogram shift
T5 construct: also called EDG4; not shown: FLAG tag added at the 5' terminal of the gene
Experimental: (§1) BTEK293FT cell was transfected with 10 μg of an expression vector carrying each synthetic gene using Lipofectamine 2000, to prepare a human LPA1 gene transfected cell, a mouse LPA1 gene transfected cell, a human LPA2 gene transfected cell, a mouse LPA2 gene transfected cell, a human LPA3 gene transfected cell, and a mouse LPA3 gene transfected cell.
(§2) The next day, the cells were washed with PBS, then detached from the cell culture dishes by an enzyme-free cell dissociation buffer (Thermo Fisher Scientific, Inc.), then washed with PBS, and then collected by centrifugation. Goat serum (Thermo Fisher Scientific, Inc.) was diluted by 2 times in FACS buffer (PBS containing 1% o of FBS), into which the cells were suspended at 1×10⁷ cells/mL. This suspension was allowed to stand at 4° C. for 30 minutes to block the cells. The cells were collected by centrifugation and suspended in FACS buffer at 4×10⁶ cells/mL, and this suspension was dispensed into a V-bottom 96-well plate (Thermo Fisher Scientific, Inc.) at 25 μL (1×10⁵ cells)/well.
(§3) The cells were collected by centrifugation and washed with 120 μL of FACS buffer. This washing operation was repeated twice. To the cell sediment, 25 μL each of Goat Anti-Mouse IgG H&L (DyLight 650) (Abcam) that was a secondary antibody diluted by 500 times in FACS buffer was dispensed, then suspended, and then allowed to stand at 4° C. for 1 hour. The cells were washed twice, then suspended in 50 μL of FACS buffer, and the whole content thereof was transferred to a V-bottom 96-well plate (Greiner), to measure the binding of antibodies to the cells using a flow cytometer (Agilent Novocyte).

[6] = target: T1, human LPA3 with FLAG tag (human LPA3 …); experiment: as above
Experimental: as §1, §2, §3

[7] = target: T6, mouse LPA2 with FLAG tag (mouse LPA2 gene transfected cell) (mouse, UniProt Q9JL06 1-348); experiment: as above
T6 construct: not shown: FLAG tag added at the 5' terminal of the gene
Experimental: as §1, §2, §3

[8] = target: T2, mouse LPA3 with FLAG tag (mouse LPA3 …); experiment: as above
Experimental: as §1, §2, §3

human LPA1 [9] = target: T3, human LPA1; experiment: flow cytometry, human LPA1-stably expressing CHO cells, median fluorescence intensity
From the text: (§4) The human LPA1-stably expressing CHO cell and the mouse LPA1-stably expressing CHO cell were washed with PBS, then detached from the cell culture dishes by an enzyme-free cell dissociation buffer (Thermo Fisher Scientific, Inc.), then washed with PBS, and then collected by centrifugation. The human LPA1-stably expressing CHO cell and the mouse LPA1-stably expressing CHO cell were suspended at 1×10⁷ cells/mL in Fc Block (Sci-Tech Biosciences, Inc.) diluted by 500 times in FACS buffer, and then allowed to stand at 4° C. for 30 minutes to block the cells. The cells were collected by centrifugation and suspended in FACS buffer at 4×10⁶ cells/mL, and this suspension was dispensed into a V-bottom 96-well plate (Thermo Fisher Scientific, Inc.) at 25 μL (1×10⁵ cells)/well. As primary antibodies, the eleven types of LPA1 antibodies produced and purified by the method described above and a mouse isotype control antibody (Fujifilm Wako Pure Chemicals Corporation) were diluted stepwise, which was added to each well at 25 μL/well, and allowed to stand at 4° C. for 1 hour. The cells were collected by centrifugation and washed with 120 μL of FACS buffer. This washing operation was repeated twice. To the cell sediment, 25 μL each of Goat Anti-Mouse IgG H&L (DyLight 650) (Abcam) that was a secondary antibody diluted by 500 times in FACS buffer was dispensed, then suspended, and then allowed to stand at 4° C. for 1 hour. The cells were washed twice, then suspended in 50 μL of FACS buffer, and the binding of antibodies to the cells was measured using a flow cytometer (Agilent Novocyte).
(§5) A graph was created, in which a concentration of the antibody was plotted on the […] axis, and a median fluorescence intensity of the flow cytometer histogram was plotted on the horizontal axis. All of the eleven antibodies were confirmed to dose-dependently bind to the human LPA1-stably expressing CHO cell and the mouse LPA1-stably expressing CHO cell. The results of the binding of each antibody to the human LPA1-stably expressing CHO cell are presented in FIG. 2A to FIG. 2K, and the results of the binding of each antibody to the mouse LPA1-stably expressing CHO cell are presented in FIG. 3A to FIG. 3K.

mouse LPA1 [10] = target: T4, mouse LPA1; experiment: flow cytometry, mouse LPA1-stably expressing CHO cells, median fluorescence intensity
From the text: as §4, §5

T4 sequence (P61793 whole entry): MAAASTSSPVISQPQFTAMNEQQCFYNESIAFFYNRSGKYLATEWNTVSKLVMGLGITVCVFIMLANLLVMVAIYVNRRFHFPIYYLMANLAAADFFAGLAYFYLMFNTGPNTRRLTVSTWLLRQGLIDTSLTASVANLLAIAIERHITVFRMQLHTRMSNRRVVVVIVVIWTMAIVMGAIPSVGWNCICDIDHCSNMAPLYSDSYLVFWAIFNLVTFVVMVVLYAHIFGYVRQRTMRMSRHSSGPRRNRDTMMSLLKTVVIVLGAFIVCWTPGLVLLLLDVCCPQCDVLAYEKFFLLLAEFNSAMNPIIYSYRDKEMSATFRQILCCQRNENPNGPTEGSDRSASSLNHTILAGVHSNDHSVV
T5 sequence (Q9HBW0 other isoform, or with tags, fused parts or gaps): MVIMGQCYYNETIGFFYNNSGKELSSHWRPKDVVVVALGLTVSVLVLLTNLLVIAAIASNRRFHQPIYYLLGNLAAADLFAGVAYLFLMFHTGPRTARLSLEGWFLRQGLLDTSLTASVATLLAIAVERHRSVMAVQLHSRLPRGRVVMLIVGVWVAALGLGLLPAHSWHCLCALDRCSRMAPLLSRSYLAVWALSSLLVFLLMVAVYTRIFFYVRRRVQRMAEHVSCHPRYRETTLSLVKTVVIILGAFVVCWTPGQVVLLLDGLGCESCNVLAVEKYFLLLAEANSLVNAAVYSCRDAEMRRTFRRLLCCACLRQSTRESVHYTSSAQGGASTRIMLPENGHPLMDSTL
T6 sequence (Q9JL06 whole entry): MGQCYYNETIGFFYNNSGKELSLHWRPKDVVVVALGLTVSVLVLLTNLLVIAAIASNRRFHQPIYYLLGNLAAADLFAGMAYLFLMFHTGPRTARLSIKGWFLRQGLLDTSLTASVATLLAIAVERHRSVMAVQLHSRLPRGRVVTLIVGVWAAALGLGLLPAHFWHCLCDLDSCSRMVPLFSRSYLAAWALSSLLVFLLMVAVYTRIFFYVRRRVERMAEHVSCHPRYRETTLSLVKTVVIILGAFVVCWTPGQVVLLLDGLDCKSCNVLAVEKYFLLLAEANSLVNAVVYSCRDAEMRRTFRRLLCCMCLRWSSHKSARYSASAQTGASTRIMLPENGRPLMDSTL
T3 sequence (Q92633 whole entry): as the sequence (P61793 whole entry) above, with A4I, S8I, Q22P, Y40H, V61I, D193E, H194N, V269I, N331S, N335T counted along it

Intracellular cAMP signaling inhibition (Inhibition rate %/100 nM) (human LPA1 [1]) [%] | Intracellular cAMP signaling inhibition (Inhibition rate %/100 nM) (mouse LPA1 [2]) [%] | Intracellular cAMP signaling inhibition IC50 (human LPA1 [3]) [nM] | Intracellular cAMP signaling inhibition IC50 (mouse LPA1 [4]) [nM] | EC50 (human LPA1 [9]) [nM] | EC50 (mouse LPA1 [10]) [nM] | Binder | binding result [5] | binding result [6] | binding result [7] | binding result [8]
34 | 36 | 40.9 | 197 | 1.8 | 2.4 | 210309-1-G (antibody, mouse IgG1, V domains shown, Mouse monoclonal from human LPA1 immunization) VH: QVQLQQSGAELARPGASMKLSCRASGYTFTSYGISWVKQRTGQGLEWIGEIYPRSGVTYYNEKFKGRATLTADKSSSTAFMELRSLTSEDSAVYFCARESISLRLGWYFDVWGTGTTVTVSS VL: DIQMTQSPASLSASVGDTVTITCRASENIYRFLAWYQQKQRKSPHLLVYNAKTLAEGVPSRFSGSGSGTQFSLKINSLQPEDFGSYYCQHHYGPPLTFGAGTKLELT | no binding (tested: 25 g/mL (so in the source)) | no binding (tested: 25 g/mL (so in the source)) | no binding (tested: 25 g/mL (so in the source)) | no binding (tested: 25 g/mL (so in the source))
22 | 49 | 96.8 | 199 | 4.2 | 2.3 | 211222-1-G (antibody, mouse IgG1, V domains shown, Mouse monoclonal from human LPA1 immunization) VH: QVQVQQSGAELARPGASVRLSCKASGYTFTSFGVNWVKQRTGQGLEWIGQIYPRTGTTYHNERFKGKATLTADKSSSTAYMELRSLTSEDSAVYFCAREGDRYSLAYWGQGTLVTVSA VL: DIQMTQSPASLSASVGETVTITCRASENIYRFLAWYQQKQGKSPQLLVYNAKTLVEGVPSRFSGSGSGTQFSLKINNLQPEDFGSYYCQHHYGIPLTFGAGTKLELK | no binding (tested: 25 g/mL (so in the source)) | no binding (tested: 25 g/mL (so in the source)) | no binding (tested: 25 g/mL (so in the source)) | no binding (tested: 25 g/mL (so in the source))
51 | 53 | 18 | 163 | 1.8 | 2.1 | 210309-2-D (antibody, mouse IgG1, V domains shown, Mouse monoclonal from human LPA1 immunization) VH: QVQLQQSGAELARPGASVKLSCKASGYTFTSYGISWVKQRTGQGLEWIGEIYPRSGNTYYNEKVKGKATLTADKSSSTAYMELRSLTSEDSAVYFCARESIFLRLGWYFDVWGTGTTVTVSS VL: DIQMTQSPASLSASVGETVTITCRASDNIYRFLAWYQQKQGKSPQLLVYNAKTLAEGVPSRFSGSGTGTQFSLKINSLQPEDFGIYYCQHHYGPPLTFGAGTKLELK | no binding (tested: 25 g/mL (so in the source)) | no binding (tested: 25 g/mL (so in the source)) | no binding (tested: 25 g/mL (so in the source)) | no binding (tested: 25 g/mL (so in the source))
44 | 50 | 33.1 | 114 | 1.9 | 1 | 210420-3-E (antibody, mouse IgG1, V domains shown, Mouse monoclonal from mouse LPA1 immunization) VH: QLQLQQSGAELARPGASVKLSCKASGYTFASFGISWVKQRAGQGLEYIGEIYPRSGTTYFNEKFRGKATLTADKSSSTAYMELRRLTSEDSAVYFCAREGVRRYAMDYWGQGTSVTVSS VL: DIQVTQSPASLSASVGETVTITCRASGNIYSFLAWYQQKQGKSPQLLVYNAKTLAEGVPSRFSGSGSGTQFSLKINSLQPEDFGSYYCQHHYGIPLTFGAGTKLDLK | no binding (tested: 25 g/mL (so in the source)) | no binding (tested: 25 g/mL (so in the source)) | no binding (tested: 25 g/mL (so in the source)) | no binding (tested: 25 g/mL (so in the source))
24 | 46 | 48.3 | 124 | 2 | 1.3 | 210420-4-E (antibody, mouse IgG1, V domains shown, Mouse monoclonal from mouse LPA1 immunization) VH: QLHLQQSGAELARPGASVRLSCKASGYTFASFGISWVKQRTGQGLEYIGEIYPRSGTTYFNEKFRGKATLSADKSSSTAYMELRSLTSEDSAVYFCAREGVRRYAMDYWGQGTSVTVSS VL: DIQVTQSPASLSASVGETVTITCRASGNIYSFLAWYQQKQGKSPQLLVYNAKTLAEGVPSRFSGSGSGTQFSLKISSLQPEDFGSYYCQHHYGIPLTFGAGTKLDLK | no binding (tested: 25 g/mL (so in the source)) | no binding (tested: 25 g/mL (so in the source)) | no binding (tested: 25 g/mL (so in the source)) | no binding (tested: 25 g/mL (so in the source))
